Test [1] addresses T1, human glucose-dependent insulinotropic polypeptide (GIP) receptor (human), P48546.
T1 chain: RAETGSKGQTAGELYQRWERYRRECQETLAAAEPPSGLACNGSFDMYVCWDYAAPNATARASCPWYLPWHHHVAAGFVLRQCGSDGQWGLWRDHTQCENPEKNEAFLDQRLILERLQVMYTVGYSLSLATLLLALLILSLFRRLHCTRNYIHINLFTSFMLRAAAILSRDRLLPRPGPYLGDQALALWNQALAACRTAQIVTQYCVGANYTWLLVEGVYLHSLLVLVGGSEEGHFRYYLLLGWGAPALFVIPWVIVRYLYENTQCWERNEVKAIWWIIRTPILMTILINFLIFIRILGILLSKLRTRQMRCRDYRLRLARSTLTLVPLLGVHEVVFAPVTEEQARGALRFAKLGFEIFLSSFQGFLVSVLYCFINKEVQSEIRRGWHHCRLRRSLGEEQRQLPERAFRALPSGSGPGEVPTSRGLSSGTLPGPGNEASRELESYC
Description: SPA, displacement of [125I]-GIP from hGIPR membranes, 0.1% bacitracin. On the technique in general: Loss of bound radioactivity is the signal in a displacement assay; it reports binding, not function.

For test [2], the target named is human glucagon receptor (human), P47871. The experiment in a line: SPA, displacement of [125I]-Gcg from hGcgR membranes, 0.1% bacitracin.
Test [3] concerns the target T2, human GLP-1 receptor (human), P43220.
T2 chain: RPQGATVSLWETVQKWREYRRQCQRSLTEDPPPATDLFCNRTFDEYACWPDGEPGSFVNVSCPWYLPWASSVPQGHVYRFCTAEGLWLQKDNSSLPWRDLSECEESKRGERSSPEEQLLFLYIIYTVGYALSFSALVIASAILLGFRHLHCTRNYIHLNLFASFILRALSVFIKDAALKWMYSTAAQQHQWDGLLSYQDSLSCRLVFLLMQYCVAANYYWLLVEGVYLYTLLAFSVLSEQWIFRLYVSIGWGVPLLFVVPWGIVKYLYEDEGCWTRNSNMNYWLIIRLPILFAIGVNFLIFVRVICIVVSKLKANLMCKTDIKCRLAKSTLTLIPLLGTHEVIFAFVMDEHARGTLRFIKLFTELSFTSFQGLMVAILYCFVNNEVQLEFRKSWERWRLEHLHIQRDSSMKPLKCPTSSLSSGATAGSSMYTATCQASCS
Description: SPA, displacement of [125I]-GLP-1 from hGLP-1R membranes, 0.1% bacitracin.

Starred links: 1 amine or outer side, 2 acyl side, 3 side chain; linkers in the order of their positions; H or OH if unused. Non-standard residues stand in square brackets, D forms with d. Groups on a side chain read outwards from the residue. No end group written: not given here. *: point of attachment. C20 diacid = O=C(O)CCCCCCCCCCCCCCCCCCC(=O)*; αMePhe(2-F) = C[C@](N)(Cc1ccccc1F)C(=O)O; γGlu = O=C(O)[C@H](CCC(=O)[*:2])N[*:1]; 4Pal = N[C@@H](Cc1ccncc1)C(=O)O; αMeL = CC(C)C[C@](C)(N)C(=O)O; AEEA = NCCOCCOCC(=O)O; Aib = CC(C)(N)C(=O)O

human glucagon receptor (human), P47871, sequence (P47871 26-477): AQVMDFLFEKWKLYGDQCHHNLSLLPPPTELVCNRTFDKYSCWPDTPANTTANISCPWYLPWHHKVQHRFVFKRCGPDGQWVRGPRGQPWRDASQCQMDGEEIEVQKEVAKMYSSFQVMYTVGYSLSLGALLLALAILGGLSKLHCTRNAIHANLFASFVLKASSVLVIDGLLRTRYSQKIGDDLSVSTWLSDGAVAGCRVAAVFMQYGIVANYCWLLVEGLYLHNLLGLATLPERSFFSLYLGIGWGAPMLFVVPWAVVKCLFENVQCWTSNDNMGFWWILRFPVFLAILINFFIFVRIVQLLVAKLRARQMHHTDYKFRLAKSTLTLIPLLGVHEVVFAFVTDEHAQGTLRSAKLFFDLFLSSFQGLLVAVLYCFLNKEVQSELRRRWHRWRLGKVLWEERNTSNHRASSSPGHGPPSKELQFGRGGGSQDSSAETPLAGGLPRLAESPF

B1: Example 119 (peptide)
peptide: H-Y[Aib]EGT[αMePhe(2-F)]ISDYSILLDKIHQ[Aib]DFVE[4Pal]K([AEEA-AEEA-γGlu-C20 diacid])LEGGPSSGAPPPS-NH2
SMILES: CC[C@H](C)[C@H](NC(=O)[C@H](CO)NC(=O)[C@H](Cc1ccc(O)cc1)NC(=O)[C@H](CC(=O)O)NC(=O)[C@H](CO)NC(=O)[C@@H](NC(=O)[C@](C)(Cc1ccccc1F)NC(=O)[C@@H](NC(=O)CNC(=O)[C@H](CCC(=O)O)NC(=O)C(C)(C)NC(=O)[C@@H](N)Cc1ccc(O)cc1)[C@@H](C)O)[C@@H](C)CC)C(=O)N[C@@H](CC(C)C)C(=O)N[C@@H](CC(C)C)C(=O)N[C@@H](CC(=O)O)C(=O)N[C@@H](CCCCN)C(=O)N[C@H](C(=O)N[C@@H](Cc1c[nH]cn1)C(=O)N[C@@H](CCC(N)=O)C(=O)NC(C)(C)C(=O)N[C@@H](CC(=O)O)C(=O)N[C@@H](Cc1ccccc1)C(=O)N[C@H](C(=O)N[C@@H](CCC(=O)O)C(=O)N[C@@H](Cc1ccncc1)C(=O)N[C@@H](CCCCNC(=O)COCCOCCNC(=O)COCCOCCNC(=O)CC[C@H](NC(=O)CCCCCCCCCCCCCCCCCCC(=O)O)C(=O)O)C(=O)N[C@@H](CC(C)C)C(=O)N[C@@H](CCC(=O)O)C(=O)NCC(=O)NCC(=O)N1CCC[C@H]1C(=O)N[C@@H](CO)C(=O)N[C@@H](CO)C(=O)NCC(=O)N[C@@H](C)C(=O)N1CCC[C@H]1C(=O)N1CCC[C@H]1C(=O)N1CCC[C@H]1C(=O)N[C@@H](CO)C(N)=O)C(C)C)[C@@H](C)CC
As usually defined, the Ki is a measure of affinity in units of concentration, obtained from inhibition or displacement. In the case of B1, the Ki in test [1] is 0.129 nM; in test [2] it was 68.8 nM; in test [3], 723 nM.

B2: Example 98 (peptide)
peptide: Y[Aib]EGT[αMePhe(2-F)]ISDYSIALDKIHQ[Aib]EFVNYK([AEEA-AEEA-γGlu-C20 diacid])LAGGPSSGAPPPS-NH2
modifications: N-terminus assumed
SMILES: CC[C@H](C)[C@H](NC(=O)[C@H](CO)NC(=O)[C@H](Cc1ccc(O)cc1)NC(=O)[C@H](CC(=O)O)NC(=O)[C@H](CO)NC(=O)[C@@H](NC(=O)[C@](C)(Cc1ccccc1F)NC(=O)[C@@H](NC(=O)CNC(=O)[C@H](CCC(=O)O)NC(=O)C(C)(C)NC(=O)[C@@H](N)Cc1ccc(O)cc1)[C@@H](C)O)[C@@H](C)CC)C(=O)N[C@@H](C)C(=O)N[C@@H](CC(C)C)C(=O)N[C@@H](CC(=O)O)C(=O)N[C@@H](CCCCN)C(=O)N[C@H](C(=O)N[C@@H](Cc1c[nH]cn1)C(=O)N[C@@H](CCC(N)=O)C(=O)NC(C)(C)C(=O)N[C@@H](CCC(=O)O)C(=O)N[C@@H](Cc1ccccc1)C(=O)N[C@H](C(=O)N[C@@H](CC(N)=O)C(=O)N[C@@H](Cc1ccc(O)cc1)C(=O)N[C@@H](CCCCNC(=O)COCCOCCNC(=O)COCCOCCNC(=O)CC[C@H](NC(=O)CCCCCCCCCCCCCCCCCCC(=O)O)C(=O)O)C(=O)N[C@@H](CC(C)C)C(=O)N[C@@H](C)C(=O)NCC(=O)NCC(=O)N1CCC[C@H]1C(=O)N[C@@H](CO)C(=O)N[C@@H](CO)C(=O)NCC(=O)N[C@@H](C)C(=O)N1CCC[C@H]1C(=O)N1CCC[C@H]1C(=O)N1CCC[C@H]1C(=O)N[C@@H](CO)C(N)=O)C(C)C)[C@@H](C)CC
In the case of B2, the Ki was found to be 0.0195 nM in test [1], 38.4 nM in test [2] and 311 nM in test [3].

B3: Example 117 (peptide)
peptide: Y[Aib]EGTFISDYSI[αMeL]LDKIHQ[Aib]DFVEYK([AEEA-AEEA-γGlu-C20 diacid])LEAGPSSGAPPPS-NH2
modifications: N-terminus assumed
SMILES: CC[C@H](C)[C@H](NC(=O)[C@H](CCCCN)NC(=O)[C@H](CC(=O)O)NC(=O)[C@H](CC(C)C)NC(=O)[C@](C)(CC(C)C)NC(=O)[C@@H](NC(=O)[C@H](CO)NC(=O)[C@H](Cc1ccc(O)cc1)NC(=O)[C@H](CC(=O)O)NC(=O)[C@H](CO)NC(=O)[C@@H](NC(=O)[C@H](Cc1ccccc1)NC(=O)[C@@H](NC(=O)CNC(=O)[C@H](CCC(=O)O)NC(=O)C(C)(C)NC(=O)[C@@H](N)Cc1ccc(O)cc1)[C@@H](C)O)[C@@H](C)CC)[C@@H](C)CC)C(=O)N[C@@H](Cc1c[nH]cn1)C(=O)N[C@@H](CCC(N)=O)C(=O)NC(C)(C)C(=O)N[C@@H](CC(=O)O)C(=O)N[C@@H](Cc1ccccc1)C(=O)N[C@H](C(=O)N[C@@H](CCC(=O)O)C(=O)N[C@@H](Cc1ccc(O)cc1)C(=O)N[C@@H](CCCCNC(=O)COCCOCCNC(=O)COCCOCCNC(=O)CC[C@H](NC(=O)CCCCCCCCCCCCCCCCCCC(=O)O)C(=O)O)C(=O)N[C@@H](CC(C)C)C(=O)N[C@@H](CCC(=O)O)C(=O)N[C@@H](C)C(=O)NCC(=O)N1CCC[C@H]1C(=O)N[C@@H](CO)C(=O)N[C@@H](CO)C(=O)NCC(=O)N[C@@H](C)C(=O)N1CCC[C@H]1C(=O)N1CCC[C@H]1C(=O)N1CCC[C@H]1C(=O)N[C@@H](CO)C(N)=O)C(C)C
As for B3, the figures for the inhibition constant Ki in test [1], in test [2] and in test [3] were 0.0722 nM, 685 nM and 591 nM, respectively.

The values above are taken from patent US20210032299A1.
